In paper PMC8675521, “Improved methanol tolerance of Rhizomucor miehei lipase based on N‑glycosylation within the α-helix region and its application in biodiesel production” (Biotechnology for Biofuels, 2021):
Where a chain is given by its changes, count along the chain named. Numbers in names are those of the source.

Substrate: CCCCCCCCCCCCCCCC(=O)Oc1ccc([N+](=O)[O-])cc1
Experiment: purified protein
Assay type: biochemical, Rhizomucor miehei
Conditions: 50 mM PBS pH 8.0, 40 °C, 5 min
[1] = propeptide N-glycosylation sites removed
[2] = N93 [sic], made on N9A/N59A template, N-glycosylated
[3] = N115, made on N9A/N59A template, N-glycosylated
[4] = printed N183, made on N9A/N59A template, N-glycosylated
[5] = N260 [sic], made on N9A/N59A template, N-glycosylated
[6] = N218, made on N9A/N59A template, N-glycosylated

B1: ProRML (Rhizomucor miehei lipase with propeptide) (Rhizomucor miehei) (protein)
chain: AVPIKRQSNSTVDSLPPLIPSRTSAPSSSPSTTDPEAPAMSRNGPLPSDVETKYGMALNATSYPDSVVQAMSIDGGIRAATSQEINELTYYTTLSANSYCRTVIPGATWDCIHCDATEDLKIIKTWSTLIYDTNAMVARGDSEKTIYIVFRGSSSIRNWIADLTFVPVSYPPVSGTKVHKGFLDSYGEVQNELVATVLDQFKQYPSYKVAVTGHSLGGATALLCALDLYQREEGLSSSNLFLYTQGQPRVGDPAFANYVVSTGIPYRRTVNERDIVPHLPPAAFGFLHAGEEYWITDNSPETVQVCTSDLETSDCSNSIVPFTSVLDHLSYFGINTGLCT
notes: propeptide plus mature peptide, plasmid pPIC9K (alpha-factor secretion), Pichia pastoris GS115, HisTrap purified; about 40 kDa unglycosylated, mutants about 55 kDa N-glycosylated
Km: 1160 µM
kcat: 1.75 ± 0.0493 s⁻¹
kcat/Km: 1510 ± 42.5 M⁻¹ s⁻¹

B2: ProRML (Rhizomucor miehei lipase with propeptide) (Rhizomucor miehei; N32A/N82A) (protein)
chain: B1 chain with N9A, N59A
notes: as for B1
Km [1]: 350 µM
kcat [1]: 0.844 ± 0.0385 s⁻¹
kcat/Km [1]: 2420 ± 111 M⁻¹ s⁻¹

B3: ProRML (Rhizomucor miehei lipase with propeptide) (Rhizomucor miehei; N32A/N82A/T116N) (protein)
chain: B1 chain with N9A, N59A, T93N
notes: as for B1
Km [2]: 4700 µM
kcat [2]: 63.6 ± 2.62 s⁻¹
kcat/Km [2]: 13500 ± 558 M⁻¹ s⁻¹

B4: ProRML (Rhizomucor miehei lipase with propeptide) (Rhizomucor miehei; D138N/N32A/N82A) (protein)
chain: B1 chain with N9A, N59A, D115N
notes: as for B1
Km [3]: 640 µM
kcat [3]: 7.26 ± 0.277 s⁻¹
kcat/Km [3]: 11300 ± 432 M⁻¹ s⁻¹

B5: ProRML (Rhizomucor miehei lipase with propeptide) (Rhizomucor miehei; L206N/N32A/N82A) (protein)
chain: B1 chain with N9A, N59A, L183N
notes: as for B1
Km [4]: 360 µM
kcat [4]: 1.186 ± 0.00633 s⁻¹
kcat/Km [4]: 3258 ± 17.5 M⁻¹ s⁻¹

B6: ProRML (Rhizomucor miehei lipase with propeptide) (Rhizomucor miehei; N32A/N82A/V283N) (protein)
chain: B1 chain with N9A, N59A, V260N
notes: as for B1
Km [5]: 1250 µM
kcat [5]: 4.89 ± 0.149 s⁻¹
kcat/Km [5]: 3930 ± 120 M⁻¹ s⁻¹

B7: ProRML (Rhizomucor miehei lipase with propeptide) (Rhizomucor miehei; G241N/N32A/N82A) (protein)
chain: B1 chain with N9A, N59A, G218N
notes: as for B1
Km [6]: 13200 µM
kcat/Km [6]: 64800 ± 1970 M⁻¹ s⁻¹
